Test results published in patent publication US5457182A (Merck & Co., Inc., priority 1994, dated 1995).

Key:
[1] = molecular target: calcineurin; assay: Calcineurin phosphatase assay; format: biochemical, bovine; settings: in presence of FK-506, CaN, CaM, Ca^2+, Mg^2+; read-out: IC50 for inhibition of CaN
Protocol: For a side-by-side comparison, FKBP12 was also tested for its ability to inhibit calcineurin in the presence of drug.
The calcineurin phosphatase assay is a modified version of previous assays (Liu, J., et al., Cell, 66, 807-815 (1991); Manalan, A., et al., Proc. Natl. Acad. Sci. U.S.A., 80, 4291-4295 (1983)). Reaction mixtures ([…] contained: 40 mM Tris (pH 8), 100 mM NaCl, 6 mM Mg(OAc)2, 0.1 mM CaCl2, 0.1 mg/ml BSA, 0.5 mM dithiothreitol, 190 nM bovine brain calmodulin (Sigma), 3 nM bovine brain calcineurin (Sigma), and 40 μM [^33 P]RII peptide (Peptides International) (600 cpm/pmole). Reaction mixtures were pre-incubated for 30 min at 30° C. prior to addition of the labeled peptide. The reaction was initiated by addition of the peptide and the dephosphorylation reaction was allowed to proceed for 10 min at 30° C. The reaction was terminated by the addition of 0.5 ml of 5% trichloroacetic acid containing 100 mM sodium phosphate (stop buffer) and applied to a 0.5 ml Dowex 50W-X8, H^+ column. Free [^33 P]phosphate was eluted from the column with 0.5 ml of stop buffer followed by 0.5 ml of water.

[2] = Peptidyl-prolyl cis-trans isomerase (PPIase) activity; format: biochemical; settings: homogeneous FKBP12 vs partially pure (about 25%) FKBP12.6
Protocol: PPIase assays were performed as described (Fischer, G., et al., Nature, 337,476-478 (1989)) with the following changes: the peptide substrate used was N-succinyl-Ala-Leu-Pro-Phe-p-nitroanilide (BACHEM, California) at a final concentration of 72 μM and chymotrypsin (Sigma) was present in the assay at a concentration of 6 μM. The total reaction volume was 1.5 ml. The release of p-nitroanilide by chymotrypsin was measured by following the increase in absorbance at 405 nm on a Beckman DU68 spectrophotometer. After an initial rapid rise in absorbance due to hydrolysis of the trans peptide, the slow secondary increase in absorbance which reflects the cis-to-trans conversion of the peptide by the PPIase was measured at 3 sec intervals out to 1.5 min. The data were fitted to a simple first-order rate equation and the first-order rate constant, k (s^-1), calculated.

[3] = tested on: calcineurin; assay: FKBP.FK-506.CaN complex-formation assay (size-exclusion column, Western analysis); format: binding, bovine; settings: partially purified FKBPs, CaM, Ca^2+, Mg^2+ and FK-506
Protocol: In the modified assay, samples were assayed by Western analysis using the anti-C-terminal peptide antibody in order to identify FKBP12 and FKBP12.6 in various chromatographic fractions.
In the first experiment, FKBP12 and FKBP12.6 were partially purified by preparative HPLC gel filtration chromatography on a Bio-Sil TSK-125 column. These partially purified FKBPs (containing both FKBP12 and FKBP12.6) are devoid of CaN which separates completely from them on this column. FKBP12 and FKBP12.6 co-elute at fractions 26 and 27 on the analytical sizing column (G2000SW) used in this experiment. […] Because this crude FKBP material also contains FKBP12.6, it can also be observed migrating slightly above FKBP12 in FIG. 4A.
To more carefully examine the requirements for FKBP12.6 complex formation with CaN, experiments were conducted using purified FKBP12.6.
The incubation buffer contained 20 mM Tris (pH 7.5), 100 mM NaCl, 6 mM MgCl2, 0.1 mM CaCl2, 0.1 mg/ml BSA, and 0.5 mM dithiothreitol. The incubation reaction was chromatographed on a Bio-Sil SEC400 HPLC column (Bio-Rad) at a flow rate of 1 ml/min and 1 min fractions were collected. The chromatography buffer was the same as the incubation buffer except that BSA was omitted. 30 μl of fractions 19-29 were subjected to electrophoresis on a 16% Novex Tris-Glycine gel and Western analysis was performed as described above.

B1: FKBP12: abundant, cytosolic 11.8 kDa protein termed the FK-506 binding protein; bovine sequence SEQ ID NO:2 (protein)
chain: GVQVETISPGDGRTFPKRGQTCVVHYTGMLEDGKKFDSSRDRNKPFKFVLGKQEVIRGWEEGVAQMSVGQRAKLTISPDYAYGATGHPGIIPPNATLIFDVELLKLE
With B1 the IC50 [1] was 9.9 nM, the “slope of PPIase rate relative to FKBP12.6” value [2] was 4.1 fold and the “complex formation with CaN” value [3] was “a significant fraction of FKBP12 is in the FKBP12.FK-506-CaN complex”.
